Laboratory results from US20250388696A1.
Where no end group is shown, it is not given here.

How the values were obtained:
[1] = target: human serum albumin (human) (UniProt P02768); assay: SPR, HSA immobilised on the chip, pH 7.3, 1:1 Langmuir fit
hFAP-Fc (human) = hFAP-Fc (human) (UniProt Q12884); assay: SPR, Fc-tagged FAP captured on immobilised protein A, pH 7.3, 1:1 Langmuir fit
[2] = target: extra domain B of oncofetal human fibronectin (ED-B) (human) (UniProt P02751); assay: SPR, ED-B immobilised on the chip, pH 7.3, 1:1 Langmuir fit
[3] = target: mouse serum albumin (mouse) (UniProt P07724); assay: SPR
[4] = target: human serum albumin (human) (UniProt P02768); assay: SPR
[5] = target: extra domain B of oncofetal human fibronectin (ED-B) (human) (UniProt P02751); assay: SPR

Sequence of extra domain B of oncofetal human fibronectin (ED-B) (human) (P02751 1266-1356 limits assumed): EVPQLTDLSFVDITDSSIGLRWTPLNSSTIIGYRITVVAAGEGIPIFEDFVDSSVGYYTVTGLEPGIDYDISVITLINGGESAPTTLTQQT
Sequence of human serum albumin (human) (P02768 25-609 limits assumed): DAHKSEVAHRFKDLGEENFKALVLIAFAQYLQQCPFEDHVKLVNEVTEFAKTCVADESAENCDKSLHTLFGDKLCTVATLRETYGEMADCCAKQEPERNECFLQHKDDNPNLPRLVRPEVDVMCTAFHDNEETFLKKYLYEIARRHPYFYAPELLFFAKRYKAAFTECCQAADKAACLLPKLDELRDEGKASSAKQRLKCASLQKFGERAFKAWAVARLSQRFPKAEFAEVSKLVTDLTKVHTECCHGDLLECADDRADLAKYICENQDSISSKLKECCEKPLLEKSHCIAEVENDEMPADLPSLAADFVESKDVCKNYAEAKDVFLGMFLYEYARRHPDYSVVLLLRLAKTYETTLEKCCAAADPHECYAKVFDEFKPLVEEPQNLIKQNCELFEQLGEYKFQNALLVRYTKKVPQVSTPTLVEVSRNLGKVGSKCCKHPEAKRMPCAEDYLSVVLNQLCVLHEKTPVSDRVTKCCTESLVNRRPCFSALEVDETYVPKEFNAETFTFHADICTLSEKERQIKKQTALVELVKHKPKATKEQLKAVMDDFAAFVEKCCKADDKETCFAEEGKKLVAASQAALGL
Sequence of hFAP-Fc (human) (Q12884 26-760 limits assumed): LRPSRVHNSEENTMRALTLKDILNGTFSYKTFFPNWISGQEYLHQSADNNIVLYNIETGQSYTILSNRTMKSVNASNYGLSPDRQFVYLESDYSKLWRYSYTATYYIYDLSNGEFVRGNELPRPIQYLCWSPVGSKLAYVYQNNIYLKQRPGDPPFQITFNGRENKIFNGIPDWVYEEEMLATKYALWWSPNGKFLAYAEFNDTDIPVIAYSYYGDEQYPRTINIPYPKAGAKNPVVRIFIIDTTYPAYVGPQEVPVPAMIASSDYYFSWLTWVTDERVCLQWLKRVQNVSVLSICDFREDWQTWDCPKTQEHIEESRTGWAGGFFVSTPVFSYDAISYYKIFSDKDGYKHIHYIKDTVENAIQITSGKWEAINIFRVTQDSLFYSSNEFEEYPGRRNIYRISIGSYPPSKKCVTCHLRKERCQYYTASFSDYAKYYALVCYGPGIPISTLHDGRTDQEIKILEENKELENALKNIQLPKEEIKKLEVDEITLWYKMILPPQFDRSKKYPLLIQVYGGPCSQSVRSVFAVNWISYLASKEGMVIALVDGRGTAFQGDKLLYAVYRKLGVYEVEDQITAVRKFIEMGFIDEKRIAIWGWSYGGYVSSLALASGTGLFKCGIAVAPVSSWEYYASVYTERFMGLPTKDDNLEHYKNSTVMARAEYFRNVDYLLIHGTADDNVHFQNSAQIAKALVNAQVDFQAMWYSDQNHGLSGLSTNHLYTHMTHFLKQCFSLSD
Sequence of mouse serum albumin (mouse) (P07724 25-608 limits assumed): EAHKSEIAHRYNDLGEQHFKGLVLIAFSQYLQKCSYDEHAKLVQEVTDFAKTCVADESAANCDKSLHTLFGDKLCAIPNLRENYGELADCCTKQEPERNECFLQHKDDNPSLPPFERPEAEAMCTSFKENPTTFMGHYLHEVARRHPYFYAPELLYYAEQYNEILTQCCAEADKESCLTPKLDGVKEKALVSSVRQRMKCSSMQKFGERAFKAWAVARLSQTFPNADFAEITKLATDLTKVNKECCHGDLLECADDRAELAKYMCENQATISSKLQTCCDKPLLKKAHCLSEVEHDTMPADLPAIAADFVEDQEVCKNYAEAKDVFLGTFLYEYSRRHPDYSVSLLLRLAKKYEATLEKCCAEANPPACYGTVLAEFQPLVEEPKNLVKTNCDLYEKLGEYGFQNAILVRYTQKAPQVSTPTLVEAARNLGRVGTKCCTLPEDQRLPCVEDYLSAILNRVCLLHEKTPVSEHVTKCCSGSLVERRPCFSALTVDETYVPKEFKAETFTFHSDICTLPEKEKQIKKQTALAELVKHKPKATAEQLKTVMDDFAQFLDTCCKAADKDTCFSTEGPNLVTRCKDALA

Row | Binder | Kd [1] [nM] | Kd [2] [nM] | also measured
1 | LAEAKVLAIKELDKAGISDYYFNLINNAKTVEGVKALKAQIVAA (designed binder, part only; not given: ED-B binding domain, linkers, tags, part only) [215035] | 2.4 |  | 
2 | LAEAKVLALKELDKYGISNYYKNLINNAKTVEGVKALKEAIVAA (designed binder, part only; not given: FAP binding domain, linkers, tags, part only) [221191] | 3.8 |  | Kd (hFAP-Fc (human)): 3.8 nM
3 | LAEAKVLALKELDKYGISNYYKNLINNAKTIEGVKALKAQIVAA (designed binder, part only; not given: ED-B binding domain, linkers, tags, part only) [215652] | 4.1 | 0.4 | 
4 | LAEAKVLALKELDKYGISNYYKNLINNAKTIEGVEALKAQIVAA (designed binder, part only; not given: ED-B binding domain, linkers, tags, part only) [215659] | 13.4 |  | 
5 | LAEAKVLALKELDKYGISNYYKNLINNAKTIEGVKALKDQIVAA (designed binder, part only; not given: ED-B binding domain, linkers, tags, part only) [215661] | 3.8 | 0.4 | 
6 | LAEAKVLALKELDKYGISNYYKNLINNAKTIEGVKALKAAIVAA (designed binder, part only; not given: ED-B binding domain, linkers, tags, part only) [215663] | 2.6 | 0.2 | 
7 | LAEAKVLAIKELDKAGISDYYFNLINNAKTVDGVKALKAQIVAA (designed binder, part only; not given: ED-B binding domain, linkers, tags, part only) [215037] | 19.9 |  | 
8 | LAEAKVLALKELDKYGISNYYKNLINNAKTIEGVKALKAQILAA (designed binder, part only; not given: ED-B binding domain, linkers, tags, part only) [215665] | 3 | 0.1 | 
9 | LAEAKVLALKELDKYGISNYYKNLINNAKTIEGVKALKEAIVAA (designed binder, part only; not given: ED-B binding domain, linkers, tags, part only) [215670] | 3.4 | 0.7 | 
10 | LAEAKVLALKELDKYGISNYYKNLINNAKTIEGVKALKDEIVAA (designed binder, part only; not given: ED-B binding domain, linkers, tags, part only) [215671] | 7.3 | 0.1 | 
11 | LAEAKVLALKELDKYGISNYYKNLINNAKTIEGVEALKDAIVAA (designed binder, part only; not given: ED-B binding domain, linkers, tags, part only) [215673] | 3.3 | 0.1 | 
12 | LAEAKVLAIKELDKAGISDYYFNLINNAKTIEGVKALKAQIVAA (designed binder, part only; not given: ED-B binding domain, linkers, tags, part only) [215039] | 2.2 |  | 
13 | LAEAKVLALKELDKYGISNYYKNLINNAKTIEGVEALKEAIVAA (designed binder, part only; not given: ED-B binding domain, linkers, tags, part only) [215674] | 5 | 0.1 | 
14 | LAEAKVLALKELDKYGISNYYKNLINNAKTIEGVEALKDAILAA (designed binder, part only; not given: ED-B binding domain, linkers, tags, part only) [215675] | 1.1 | 0.6 | 
15 | LAEAKVLALKELDKYGISNYYKNLIDKAKTIEGVEALKDAILAA (designed binder, part only; not given: ED-B binding domain, linkers, tags, part only) [215680] | 0.8 | 0.1 | 
16 | LAEAKVLAIKELDKAGISNYYFNLINNAKTVEGVKALKAQIVAA (designed binder, part only; not given: ED-B binding domain, linkers, tags, part only) [219089] | 12.5 | 0.3 | 
17 | LAEAKVLALKELDKYGISNYYKNLINNAKTVEGVKALKEAIVAA (designed binder, part only; not given: ED-B binding domain, linkers, tags, part only) [217806] | 1.5 | 0.1 | 
18 | LAEAKVLALKELDKYGISNYYKNLINNAKTVEGVKALKEAIVAALP (designed binder, part only; not given: ED-B binding domain, linkers, tags, part only, also: fusion protein, linkers and tags not given here) [219087] | 1.4 | 0.2 | 
19 | LAEAKVLAIKELDKAGISNYYFNLINNAKTVEGVKDLKAQIVAA (designed binder, part only; not given: ED-B binding domain, linkers, tags, part only) [215052] | 7.9 |  | 
20 | LAEAKVLAIKELDKAGISNYYFNLINNAKTIEGVKALKAQIVAA (designed binder, part only; not given: ED-B binding domain, linkers, tags, part only) [215055] | 1.7 |  | 
21 | LAEAKVLALKELDKYGISNYYKNLINNAKTIEGVKALKDEIVAA (designed binder, part only; not given: FAP binding domain, linkers, tags, part only) [221215] | 7.9 |  | Kd (hFAP-Fc (human)): 8 nM
22 | LAEAKVLALKELDKYGISNYYKNLINNAKTVEGVKALKEAIVAALP (designed binder, part only; not given: ED-B binding domain, linker, part only, also: DOTA coupled, site not given here, Lu loaded) [ED-B specific fusion protein 219087 DOTA Lu] |  |  | Kd [3]: 1.3 nM; Kd [4]: 1.3 nM; Kd [5]: < 1 nM
